B1: C105: E. coli EPSPS C-terminal fragment, residue 105 to C-terminus (protein, UniProt P0A6D3 105-427, looked up, fragment)
chain: ALCLGSNDIVLTGEPRMKERPIGHLVDALRLGGAKITYLEQENYPPLRLQGGFTGGNVDVDGSVSSQFLTALLMTAPLAPEDTVIRIKGDLVSKPYIDITLNLMKTFGVEIENQHYQQFVVKGGQSYQSPGTYLVEGDASSASYFLAAAAIKGGTVKVTGIGRNSMQGDIRFADVLEKMGATICWGDDYISCTRGELNAIDMDMNHIPDAAMTIATAALFAKGTTTLRNIYNWRVKETDRLFAMATELRKVGAEVEEGHDYIRITPPEKLNFAEIATYNDHRMAMCFSLVALSDTPVTILDPKCTAKTFPDYFEQLARISQAA
B2: C183: E. coli EPSPS C-terminal fragment, residue 183 to C-terminus (protein, UniProt P0A6D3 183-427, looked up, fragment)
chain: APEDTVIRIKGDLVSKPYIDITLNLMKTFGVEIENQHYQQFVVKGGQSYQSPGTYLVEGDASSASYFLAAAAIKGGTVKVTGIGRNSMQGDIRFADVLEKMGATICWGDDYISCTRGELNAIDMDMNHIPDAAMTIATAALFAKGTTTLRNIYNWRVKETDRLFAMATELRKVGAEVEEGHDYIRITPPEKLNFAEIATYNDHRMAMCFSLVALSDTPVTILDPKCTAKTFPDYFEQLARISQAA
B3: C166: E. coli EPSPS C-terminal fragment, residue 166 to C-terminus (protein, UniProt P0A6D3 166-427, looked up, fragment)
chain: GSVSSQFLTALLMTAPLAPEDTVIRIKGDLVSKPYIDITLNLMKTFGVEIENQHYQQFVVKGGQSYQSPGTYLVEGDASSASYFLAAAAIKGGTVKVTGIGRNSMQGDIRFADVLEKMGATICWGDDYISCTRGELNAIDMDMNHIPDAAMTIATAALFAKGTTTLRNIYNWRVKETDRLFAMATELRKVGAEVEEGHDYIRITPPEKLNFAEIATYNDHRMAMCFSLVALSDTPVTILDPKCTAKTFPDYFEQLARISQAA
B4: C86: E. coli EPSPS C-terminal fragment, residue 86 to C-terminus (protein, UniProt P0A6D3 86-427, looked up, fragment)
chain: GALELFLGNAGTAMRPLAAALCLGSNDIVLTGEPRMKERPIGHLVDALRLGGAKITYLEQENYPPLRLQGGFTGGNVDVDGSVSSQFLTALLMTAPLAPEDTVIRIKGDLVSKPYIDITLNLMKTFGVEIENQHYQQFVVKGGQSYQSPGTYLVEGDASSASYFLAAAAIKGGTVKVTGIGRNSMQGDIRFADVLEKMGATICWGDDYISCTRGELNAIDMDMNHIPDAAMTIATAALFAKGTTTLRNIYNWRVKETDRLFAMATELRKVGAEVEEGHDYIRITPPEKLNFAEIATYNDHRMAMCFSLVALSDTPVTILDPKCTAKTFPDYFEQLARISQAA
B5: C155: E. coli EPSPS C-terminal fragment, residue 155 to C-terminus (protein, UniProt P0A6D3 155-427, looked up, fragment)
chain: GGFTGGNVDVDGSVSSQFLTALLMTAPLAPEDTVIRIKGDLVSKPYIDITLNLMKTFGVEIENQHYQQFVVKGGQSYQSPGTYLVEGDASSASYFLAAAAIKGGTVKVTGIGRNSMQGDIRFADVLEKMGATICWGDDYISCTRGELNAIDMDMNHIPDAAMTIATAALFAKGTTTLRNIYNWRVKETDRLFAMATELRKVGAEVEEGHDYIRITPPEKLNFAEIATYNDHRMAMCFSLVALSDTPVTILDPKCTAKTFPDYFEQLARISQAA
B6: N182: E. coli EPSPS N-terminal fragment, N-terminus to residue 182 (protein, UniProt P0A6D3 1-182, looked up, fragment)
chain: MESLTLQPIARVDGTINLPGSKSVSNRALLLAALAHGKTVLTNLLDSDDVRHMLNALTALGVSYTLSADRTRCEIIGNGGPLHAEGALELFLGNAGTAMRPLAAALCLGSNDIVLTGEPRMKERPIGHLVDALRLGGAKITYLEQENYPPLRLQGGFTGGNVDVDGSVSSQFLTALLMTAPL
B7: N184: E. coli EPSPS N-terminal fragment, N-terminus to residue 184 (protein, UniProt P0A6D3 1-184, looked up, fragment)
chain: MESLTLQPIARVDGTINLPGSKSVSNRALLLAALAHGKTVLTNLLDSDDVRHMLNALTALGVSYTLSADRTRCEIIGNGGPLHAEGALELFLGNAGTAMRPLAAALCLGSNDIVLTGEPRMKERPIGHLVDALRLGGAKITYLEQENYPPLRLQGGFTGGNVDVDGSVSSQFLTALLMTAPLAP
B8: N85: E. coli EPSPS N-terminal fragment, N-terminus to residue 85 (protein, UniProt P0A6D3 1-85, looked up, fragment)
chain: MESLTLQPIARVDGTINLPGSKSVSNRALLLAALAHGKTVLTNLLDSDDVRHMLNALTALGVSYTLSADRTRCEIIGNGGPLHAE
B9: N165: E. coli EPSPS N-terminal fragment, N-terminus to residue 165 (protein, UniProt P0A6D3 1-165, looked up, fragment)
chain: MESLTLQPIARVDGTINLPGSKSVSNRALLLAALAHGKTVLTNLLDSDDVRHMLNALTALGVSYTLSADRTRCEIIGNGGPLHAEGALELFLGNAGTAMRPLAAALCLGSNDIVLTGEPRMKERPIGHLVDALRLGGAKITYLEQENYPPLRLQGGFTGGNVDVD
B10: N154: E. coli EPSPS N-terminal fragment, N-terminus to residue 154 (protein, UniProt P0A6D3 1-154, looked up, fragment)
chain: MESLTLQPIARVDGTINLPGSKSVSNRALLLAALAHGKTVLTNLLDSDDVRHMLNALTALGVSYTLSADRTRCEIIGNGGPLHAEGALELFLGNAGTAMRPLAAALCLGSNDIVLTGEPRMKERPIGHLVDALRLGGAKITYLEQENYPPLRLQ
B11: N104: E. coli EPSPS N-terminal fragment, N-terminus to residue 104 (protein, UniProt P0A6D3 1-104, looked up, fragment)
chain: MESLTLQPIARVDGTINLPGSKSVSNRALLLAALAHGKTVLTNLLDSDDVRHMLNALTALGVSYTLSADRTRCEIIGNGGPLHAEGALELFLGNAGTAMRPLAA

Tested on: aroA gene-mutant E. coli strain AB2829
Test: In vivo complementation: growth on solid M63 restrictive medium
Assay type: cell-based
Set-up: key: −: failed to grow; +: able to grow
Details: C-terminal fragment alone
Excerpt: The pKU2100 plasmid constructed as described above and corresponding pACYC1184 plasmid were introduced separately or together into the strain AB2829 deficient in E. coli aroA gene. Then, the strain was streaked on solid M63 restrictive medium and cultured overnight to determine the growth.
In order to test if EPSPS achieves fragment complementation after in vivo expression, genes encoding EPSPS N-terminal peptides were constructed into pACYC184, and genes encoding EPSPS C-terminal peptides were constructed into pBR322 (see the section Materials and Methods for the detailed construction method). Afterwards, these plasmids were introduced into aroA gene-mutant E. coli strain AB2829. EPSPS activity of the protein fragments encoded by these genes was determined by the growth of the strains on M63 restrictive medium.
The pACYC184 and pBR322 plasmids are able to be expressed in the same bacterial cell since they have replicons p15A and ColE1 respectively. In this regard, a pACYC184 plasmid was co-introduced into aroA gene-mutant E. coli strain AB2829 together with a corresponding pKU2100 plasmid, wherein the N-terminal peptide encoded by the pACYC184 plasmid and C-terminal peptide encoded by the pKU2100 plasmid are the two fragments divided at the same site from EPSPS. The resulting strains are streaked on M63 restrictive medium, and cultured at 37° C.
The pBR322 plasmids constructed in section 3.5 a and their relevant pACYC1184 plasmids constructed in section 3.5 b were introduced respectively or together into E. coli strain AB2829 deficient in aroA gene. Then the strains were streaked on solid M63 restrictive medium and cultured overnight to test the growth.

Molecule | complementation condition, C-terminal
C377: E. coli EPSPS C-terminal fragment, residue 377 to C-terminus (AEIATYNDHRMAMCFSLVALSDTPVTILDPKCTAKTFPDYFEQLARISQAA; UniProt P0A6D3 377-427, looked up, fragment) | −
C372: E. coli EPSPS C-terminal fragment, residue 372 to C-terminus (EKLNFAEIATYNDHRMAMCFSLVALSDTPVTILDPKCTAKTFPDYFEQLARISQAA; UniProt P0A6D3 372-427, looked up, fragment) | −
C384: E. coli EPSPS C-terminal fragment, residue 384 to C-terminus (DHRMAMCFSLVALSDTPVTILDPKCTAKTFPDYFEQLARISQAA; UniProt P0A6D3 384-427, looked up, fragment) | −
B1 | −
B2 | −
B3 | −
B4 | −
B5 | −

Same assay, conditions: N-terminal fragment alone

Molecule | complementation condition, N-terminal
N31: E. coli EPSPS N-terminal fragment, N-terminus to residue 31 (MESLTLQPIARVDGTINLPGSKSVSNRALLL; UniProt P0A6D3 1-31, looked up, fragment) | −
B6 | −
B7 | −
B8 | −
B9 | −
B10 | −
B11 | −

From US8936925B2, “Reconstitution of 5-enolpyruvylshikimate-3-phosphate synthase activity by fragment complementation” (priority 2004, dated 2015)
